Measurements reported in publication PMC3913039.

Molecular target: recombinant 3x-FLAG-tagged human Sec61α, wild type (human) (UniProt P61619)
Test: co-IP; Sf21 microsomes with FLAG-Sec61α and Sec61γ solubilised with 1% Deoxy BigChap, anti-FLAG immunoprecipitation, immunoblot beside canine microsomes

- stoichiometry N: 1
Substance: recombinant untagged human Sec61γ (from UniProt P60059 1-68) (natural protein; other documents disagree on this pair)
